{"source": "patent US20260130994A1", "target": "CD3ε on wildtype primary human T cells (human) (UniProt P07766)", "assay": "cell-based or functional assay", "data": [{"substance": "CAR4 (CD3ε.CD8α.4-1BB.CD3ζ), myc-tagged second-generation CAR with the OKT3 scFv, expressed on NK-92 cells", "values": [{"measurement": "average residual TCR+ T cells after co-culture in G-Rex, regimen 1:2A", "value": 0.026, "unit": "%"}, {"measurement": "average residual TCR+ T cells after co-culture in G-Rex, regimen 1:2B", "value": 0.007, "unit": "%"}, {"measurement": "removal of residual wildtype T cells, 2 co-culture cycles", "value": "> 99.9", "unit": "%"}, {"measurement": "removal of residual wildtype T cells, single administration", "value": 98.6, "unit": "%"}]}]}
